Data from article PMC6346101 (2019).

Biological target: Biotinylated D/NP_(TAIL) fused to a biotinylation motif (Influenza D virus, strain …, UniProt A0A0E3VZU8 505-552)
Assay: SPR

B1: human importin-α7 without its IBB domain (amino-acids 58 to 536) (domain or fragment)
chain: not shown
koff: 0.09 s⁻¹
